{
  "source": "paper doi:10.1101/2024.09.20.614047",
  "about": "“The Role of ATP Synthase Subunit e (ATP5I) in Mediating the Metabolic and Antiproliferative Effects of Metformin” (bioRxiv, 2024)",
  "proteins": {"B1": {"name": "recombinant purified ATP5I (ATP synthase subunit e), N-terminal 6x-His-tagged (natural protein, human, UniProt P56385 1-69, looked up)", "chain": "MVPPVQVSPLIKLGRYSALFLGVAYGATRYNYLKPRAEEERRIAAEEKKKQDELKRIARELAEDDSILK", "notes": "No cleavage of the His tag is described; the gel filtration legend names the Nter-6×His-ATP5I construct; also called rATP5I; recombinant ATP5I; source: Rosetta E. coli BL21, purified (solubilised in 6 M guanidine, HisTrap FF, desalting column, concentrated); not shown: 6x-His, N-terminal, kept"}},
  "molecular_target": "the molecule itself",
  "assay": "SEC; gel filtration of purified rATP5I (Superose 12 10/300 GL in legend B; calibrated Superose 6 10/300 GL in legend C); oligomeric state of the protein in solution",
  "data": [
    {"protein": "B1", "values": [
      {"measurement": "stoichiometry N", "value": "~10"}
    ]}
  ]
}
